Data: the supplement of paper PMC10065799, “High-throughput profiling of sequence recognition by tyrosine kinases and SH2 domains using bacterial peptide display” (eLife, 2023)

target: SHP2-C SH2; assay: SH2 binding enrichment of the phosphorylated peptide, bacterial display (enrichment ratio); higher = better substrate or ligand; peptides without Tyr show the background
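Throughout, for SH2 binding enrichment of the phosphorylated peptide, bacterial display: peptide library displayed on the E. coli surface as eCPX fusions, selected cells deep-sequenced, score is each peptide's frequency after selection divided by its frequency in the input.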
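Throughout, for phosphorylation enrichment, bacterial display: 11-residue human phosphosite peptides and single-mutation variants displayed on the E. coli surface, counted by deep sequencing, each peptide's frequency after selection divided by its frequency in the unselected input library; frequency after pTyr selection over input frequency; kinase dosed for 20-30% of maximal phosphorylation in three min.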

Sequence | SH2 binding enrichment
DRLASYRDKVR [KRT12_Y139_L140R] | 0.947
ANYTEYVATSW [CDKL5_Y171_R175S] | 0.665
VVKTVYSLQPS [KNSTRN_Y87_P92S] | 0.981
QERPEYWDQET [HLA-A_Y83_G80R] | 0.827
HLEKKYVHRDS [CSF1R_Y708_R710H] | 1.17
RQSRNYLGGFA [SYK_Y47] | 0.519
IDGLEYLHSQS [STK11_Y166_G171S] | 0.622
ITVCDYTNPCP [MYD88_Y276_T281P] | 0.85
STEPQYQPGEN [SRC_Y530] | 0.712
SKHHLYSDLQT [PTCHD1_Y84_R82H] | 0.966
KLIETYSSKNY [PLP1_Y50_F51S] | 0.703
TLSGIYQFSIA [FOXL2_Y81_I84S_YF] | 0.836
REETTYLPLTS [ICAM3_Y527_S525T] | 0.746
APSHAYHGGVL [ANO1_Y981] | 0.501
QGGRCYMMIVD [GAA_Y438_R437C] | 0.674
NLPGGYSGSVK [MCPH1_Y606] | 0.766
WRPFGYPHRRR [BCS1L_Y181_R183H] | 0.633
KDDEKYLDVSR [MTM1_Y260_I264S] | 0.649
AVLQLYIFVAT [CFTR_Y1014_P1013L] | 0.701
GPRKAYELSQR [SETX_Y1297] | 0.707
NDENIYKGLPD [VAV3_Y141_D139N] | 0.645
RESVSYLFSHV [PRPS1_Y311_G306R] | 2.06
EFSNQYKATIG [RAB7A_Y37_K32E] | 0.519
ACDALYPPGPP | 1.11
KSLFHYRQYSA [CPS1_Y1491] | 0.521
VEDQYYRVDCY [FHL1_Y208_C209R] | 0.677
TLARLYHRDST [LRIG1_Y1029_P1031R] | 0.608
CTTIHYNDMCN [TP53_Y234_Y236D] | 0.658
PPDGEYFTLQI [TP53_Y327_L323P] | 1.1

target: c-Src SH2; assay: as above

Sequence | SH2 binding enrichment
DRLASYRDKVR [KRT12_Y139_L140R] | 1.09
ANYTEYVATSW [CDKL5_Y171_R175S] | 0.592
VVKTVYSLQPS [KNSTRN_Y87_P92S] | 0.482
QERPEYWDQET [HLA-A_Y83_G80R] | 0.626
HLEKKYVHRDS [CSF1R_Y708_R710H] | 0.659
RQSRNYLGGFA [SYK_Y47] | 0.407
IDGLEYLHSQS [STK11_Y166_G171S] | 0.413
ITVCDYTNPCP [MYD88_Y276_T281P] | 0.686
STEPQYQPGEN [SRC_Y530] | 0.558
SKHHLYSDLQT [PTCHD1_Y84_R82H] | 10
KLIETYSSKNY [PLP1_Y50_F51S] | 0.522
TLSGIYQFSIA [FOXL2_Y81_I84S_YF] | 0.533
REETTYLPLTS [ICAM3_Y527_S525T] | 0.36
APSHAYHGGVL [ANO1_Y981] | 0.629
QGGRCYMMIVD [GAA_Y438_R437C] | 0.957
NLPGGYSGSVK [MCPH1_Y606] | 0.448
WRPFGYPHRRR [BCS1L_Y181_R183H] | 0.478
KDDEKYLDVSR [MTM1_Y260_I264S] | 0.532
AVLQLYIFVAT [CFTR_Y1014_P1013L] | 0.439
GPRKAYELSQR [SETX_Y1297] | 0.422
NDENIYKGLPD [VAV3_Y141_D139N] | 0.494
RESVSYLFSHV [PRPS1_Y311_G306R] | 0.654
EFSNQYKATIG [RAB7A_Y37_K32E] | 0.316
ACDALYPPGPP | 0.632
KSLFHYRQYSA [CPS1_Y1491] | 0.379
VEDQYYRVDCY [FHL1_Y208_C209R] | 0.897
TLARLYHRDST [LRIG1_Y1029_P1031R] | 0.552
CTTIHYNDMCN [TP53_Y234_Y236D] | 2.42
PPDGEYFTLQI [TP53_Y327_L323P] | 0.537

target: Grb2 SH2 (UniProt P62993); assay: as above
Sequence (P62993 whole entry, looked up): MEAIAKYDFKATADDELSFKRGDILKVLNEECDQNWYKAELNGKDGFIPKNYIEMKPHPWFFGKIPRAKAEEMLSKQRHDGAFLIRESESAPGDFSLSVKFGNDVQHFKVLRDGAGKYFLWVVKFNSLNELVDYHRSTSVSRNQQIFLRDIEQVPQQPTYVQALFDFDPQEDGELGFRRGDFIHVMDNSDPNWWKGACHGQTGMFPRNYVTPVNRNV

Sequence | SH2 binding enrichment
DRLASYRDKVR [KRT12_Y139_L140R] | 0.878
ANYTEYVATSW [CDKL5_Y171_R175S] | 0.874
VVKTVYSLQPS [KNSTRN_Y87_P92S] | 0.651
QERPEYWDQET [HLA-A_Y83_G80R] | 0.985
HLEKKYVHRDS [CSF1R_Y708_R710H] | 1.26
RQSRNYLGGFA [SYK_Y47] | 0.612
IDGLEYLHSQS [STK11_Y166_G171S] | 0.768
ITVCDYTNPCP [MYD88_Y276_T281P] | 1.07
STEPQYQPGEN [SRC_Y530] | 0.814
SKHHLYSDLQT [PTCHD1_Y84_R82H] | 1.06
KLIETYSSKNY [PLP1_Y50_F51S] | 0.912
TLSGIYQFSIA [FOXL2_Y81_I84S_YF] | 1
REETTYLPLTS [ICAM3_Y527_S525T] | 0.957
APSHAYHGGVL [ANO1_Y981] | 0.881
QGGRCYMMIVD [GAA_Y438_R437C] | 0.696
NLPGGYSGSVK [MCPH1_Y606] | 0.72
WRPFGYPHRRR [BCS1L_Y181_R183H] | 0.662
KDDEKYLDVSR [MTM1_Y260_I264S] | 0.794
AVLQLYIFVAT [CFTR_Y1014_P1013L] | 1
GPRKAYELSQR [SETX_Y1297] | 0.982
NDENIYKGLPD [VAV3_Y141_D139N] | 1.1
RESVSYLFSHV [PRPS1_Y311_G306R] | 0.907
EFSNQYKATIG [RAB7A_Y37_K32E] | 0.665
ACDALYPPGPP | 1.07
KSLFHYRQYSA [CPS1_Y1491] | 0.749
VEDQYYRVDCY [FHL1_Y208_C209R] | 0.891
TLARLYHRDST [LRIG1_Y1029_P1031R] | 0.963
CTTIHYNDMCN [TP53_Y234_Y236D] | 0.756
PPDGEYFTLQI [TP53_Y327_L323P] | 0.561

target: Jak2 (UniProt O60674); assay: phosphorylation enrichment, bacterial display (enrichment ratio); higher = better substrate or ligand; peptides without Tyr show the background
Sequence (O60674 whole entry, looked up): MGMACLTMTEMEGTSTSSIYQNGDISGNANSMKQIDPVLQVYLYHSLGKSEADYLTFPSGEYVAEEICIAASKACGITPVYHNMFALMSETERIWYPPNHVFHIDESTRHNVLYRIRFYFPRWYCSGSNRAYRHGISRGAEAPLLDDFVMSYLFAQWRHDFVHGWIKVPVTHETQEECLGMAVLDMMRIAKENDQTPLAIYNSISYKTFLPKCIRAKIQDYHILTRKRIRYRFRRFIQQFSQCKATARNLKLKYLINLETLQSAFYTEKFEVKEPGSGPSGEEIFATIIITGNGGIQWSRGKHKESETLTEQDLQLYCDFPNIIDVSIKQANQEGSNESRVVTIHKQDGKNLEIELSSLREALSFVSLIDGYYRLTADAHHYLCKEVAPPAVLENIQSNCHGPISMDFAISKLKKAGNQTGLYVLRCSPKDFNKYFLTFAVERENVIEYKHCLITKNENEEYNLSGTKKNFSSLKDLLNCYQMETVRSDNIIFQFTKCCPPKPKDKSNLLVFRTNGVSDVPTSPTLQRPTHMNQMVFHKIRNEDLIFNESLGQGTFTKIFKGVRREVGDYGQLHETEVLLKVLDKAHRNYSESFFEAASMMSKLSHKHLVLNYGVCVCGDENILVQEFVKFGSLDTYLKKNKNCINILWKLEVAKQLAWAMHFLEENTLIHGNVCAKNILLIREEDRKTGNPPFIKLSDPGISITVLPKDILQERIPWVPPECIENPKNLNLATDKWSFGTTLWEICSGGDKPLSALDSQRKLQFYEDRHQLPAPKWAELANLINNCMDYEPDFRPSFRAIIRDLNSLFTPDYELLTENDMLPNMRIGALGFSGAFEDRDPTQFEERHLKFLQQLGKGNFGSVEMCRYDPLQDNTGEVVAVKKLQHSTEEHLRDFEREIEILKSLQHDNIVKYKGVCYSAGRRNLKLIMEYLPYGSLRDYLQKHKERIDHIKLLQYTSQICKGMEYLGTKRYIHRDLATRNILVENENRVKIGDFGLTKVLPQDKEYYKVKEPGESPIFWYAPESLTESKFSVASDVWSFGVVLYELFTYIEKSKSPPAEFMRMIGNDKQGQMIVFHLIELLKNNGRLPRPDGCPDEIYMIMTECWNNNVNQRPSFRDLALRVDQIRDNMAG

Sequence | phosphorylation enrichment
DRLASYRDKVR [KRT12_Y139_L140R] | 0.587
ANYTEYVATSW [CDKL5_Y171_R175S] | 0.897
VVKTVYSLQPS [KNSTRN_Y87_P92S] | 0.715
QERPEYWDQET [HLA-A_Y83_G80R] | 1.56
HLEKKYVHRDS [CSF1R_Y708_R710H] | 0.358
RQSRNYLGGFA [SYK_Y47] | 0.436
IDGLEYLHSQS [STK11_Y166_G171S] | 0.831
ITVCDYTNPCP [MYD88_Y276_T281P] | 0.689
STEPQYQPGEN [SRC_Y530] | 0.681
SKHHLYSDLQT [PTCHD1_Y84_R82H] | 0.887
KLIETYSSKNY [PLP1_Y50_F51S] | 0.653
TLSGIYQFSIA [FOXL2_Y81_I84S_YF] | 0.919
REETTYLPLTS [ICAM3_Y527_S525T] | 1.03
APSHAYHGGVL [ANO1_Y981] | 0.496
QGGRCYMMIVD [GAA_Y438_R437C] | 2.11
NLPGGYSGSVK [MCPH1_Y606] | 0.618
WRPFGYPHRRR [BCS1L_Y181_R183H] | 0.509
KDDEKYLDVSR [MTM1_Y260_I264S] | 0.973
AVLQLYIFVAT [CFTR_Y1014_P1013L] | 1.24
GPRKAYELSQR [SETX_Y1297] | 0.558
NDENIYKGLPD [VAV3_Y141_D139N] | 1.14
RESVSYLFSHV [PRPS1_Y311_G306R] | 1.15
EFSNQYKATIG [RAB7A_Y37_K32E] | 0.52
ACDALYPPGPP | 0.615
KSLFHYRQYSA [CPS1_Y1491] | 0.686
VEDQYYRVDCY [FHL1_Y208_C209R] | 1.98
TLARLYHRDST [LRIG1_Y1029_P1031R] | 0.61
CTTIHYNDMCN [TP53_Y234_Y236D] | 0.724
PPDGEYFTLQI [TP53_Y327_L323P] | 3.69
